Measurements published in paper PMC5067070.

Target: Xenopus laevis ERCC1 (Xenopus laevis (endogenous in egg extract))
Assay: immunodepletion

percent of SLX4 co-depleted: 90%
Substance: Xenopus laevis SLX4 (natural protein)
